Data on eight molecules can be found in PMC10901769, “An anti-CRISPR that represses its own transcription while blocking Cas9-target DNA binding”.

Data set [1] has as its target N-terminal domain of AcrIIA15 (AcrIIA15^NTD) (Staphylococcus (identified from Staphylococcus genomes)). Kind of data set: crystal structure; AcrIIA15 (full-length or NTD) with IR1 promoter DNA, mixed at 2:1.1 in 20 mM Tris pH 7.5, 100 mM NaCl; 3.15 Å and 3.10 Å.
In data set [2] the target is full-length AcrIIA15 (Staphylococcus (identified from Staphylococcus genomes)). As to the kind of experiment: crystal structure; free full-length AcrIIA15; 2.34 Å.
The target is the same in data set [3]. As to the kind of experiment: SEC; dimerization state of wild-type or mutated AcrIIA15; Superdex 75, 20 mM Tris-HCl pH 7.5, 0.5 M NaCl.
Data set [4] shares this target. As to the kind of experiment: crystal structure; AcrIIA15 (full-length or NTD) with IR1 promoter DNA, mixed at 2:1.1 in 20 mM Tris pH 7.5, 100 mM NaCl; 3.15 Å and 3.10 Å.
Data set [5] shares this target. As to the kind of experiment: cryo-EM structure; SaCas9-sgRNA-AcrIIA15-IR1 quaternary complex, mixed at 1:1.1:0.9:0.6, purified by SEC in 20 mM Tris pH 7.5, 0.1 M NaCl; 3.82 Å.
The target in data set [6] is full-length AcrIIA15 R2A mutant (Staphylococcus (identified from Staphylococcus genomes)). As to the kind of experiment: SEC; dimerization state of wild-type or mutated AcrIIA15; Superdex 75, 20 mM Tris-HCl pH 7.5, 0.5 M NaCl.
Data set [7] has as its target T1, AcrIIA15 K31A (UniProt PDB:8JG9_3 1-171, K32A).
T1 sequence: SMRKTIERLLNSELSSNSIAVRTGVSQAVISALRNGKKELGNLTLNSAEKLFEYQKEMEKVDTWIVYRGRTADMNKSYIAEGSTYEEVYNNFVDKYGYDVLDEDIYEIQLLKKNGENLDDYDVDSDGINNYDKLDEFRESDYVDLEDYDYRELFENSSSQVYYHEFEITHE
Kind of data set: EMSA; Promoter EMSA: 20 mM Tris-HCl pH 7.5, 300 mM NaCl, on ice/4 C, 30 min; SaCas9 EMSA: 20 mM Tris pH 7.5, 200 mM NaCl, 10 mM EDTA, RT; SPR: 10 mM Na2HPO4, 2 mM KH2PO4, 0.3 M NaCl; SEC: 20 mM Tris pH 7.5, 300 mM NaCl. The conditions noted are these: protein: recombinant; tags: C-terminal His6; chain copies: 2; label: 5'-Cy3 on strand 1; blunt.

Data set [8] has as its target T2, AcrIIA15 R2A/L44A (UniProt PDB:8JG9_3 1-171, R3A;L45A).
T2 sequence: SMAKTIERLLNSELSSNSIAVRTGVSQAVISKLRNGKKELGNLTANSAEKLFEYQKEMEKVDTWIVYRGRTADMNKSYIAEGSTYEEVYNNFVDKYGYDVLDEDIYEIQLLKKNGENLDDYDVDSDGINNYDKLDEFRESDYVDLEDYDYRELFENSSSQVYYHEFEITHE
The data set is described as above. The conditions noted are these: protein: recombinant; tags: C-terminal His6; label: 5'-Cy3 on strand 1; blunt.

For data set [9], the target named is T3, AcrIIA15 K37A (UniProt PDB:8JG9_3 1-171, K38A).
T3 sequence: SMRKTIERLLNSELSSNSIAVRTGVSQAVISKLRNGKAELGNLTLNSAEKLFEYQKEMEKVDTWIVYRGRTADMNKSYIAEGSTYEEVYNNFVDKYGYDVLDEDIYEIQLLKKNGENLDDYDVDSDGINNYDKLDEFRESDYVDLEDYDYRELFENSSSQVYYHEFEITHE
The data set is described as above. The conditions noted are these: protein: recombinant; tags: C-terminal His6; chain copies: 2; label: 5'-Cy3 on strand 1; blunt.

In data set [10] the target is T4, AcrIIA15 L44A (UniProt PDB:8JG9_3 1-171, L45A).
T4 sequence: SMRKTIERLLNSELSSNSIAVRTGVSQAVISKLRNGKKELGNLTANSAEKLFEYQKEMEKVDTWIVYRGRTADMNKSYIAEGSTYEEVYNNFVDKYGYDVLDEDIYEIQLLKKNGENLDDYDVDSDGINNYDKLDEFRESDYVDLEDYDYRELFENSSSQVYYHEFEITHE
The data set is described as above. The conditions noted are these: protein: recombinant; tags: C-terminal His6; label: 5'-Cy3 on strand 1; blunt.

In data set [11] the target is T5, AcrIIA15 full-length (UniProt PDB:8JG9_3 1-171).
T5 sequence: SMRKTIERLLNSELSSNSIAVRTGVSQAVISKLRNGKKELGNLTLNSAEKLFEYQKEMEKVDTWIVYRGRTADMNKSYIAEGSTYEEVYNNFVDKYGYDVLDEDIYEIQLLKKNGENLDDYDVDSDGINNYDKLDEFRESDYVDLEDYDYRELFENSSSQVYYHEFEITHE
Kind of data set: SPR; Promoter EMSA: 20 mM Tris-HCl pH 7.5, 300 mM NaCl, on ice/4 C, 30 min; SaCas9 EMSA: 20 mM Tris pH 7.5, 200 mM NaCl, 10 mM EDTA, RT; SPR: 10 mM Na2HPO4, 2 mM KH2PO4, 0.3 M NaCl; SEC: 20 mM Tris pH 7.5, 300 mM NaCl. The conditions noted are these: protein: recombinant; tags: C-terminal His6, or His6-Sumo removed by Ulp1; chain copies: 2; blunt.

For data set [12], the target named is T6, SaCas9;AcrIIA15 full-length (Staphylococcus aureus;, UniProt J7RUA5;PDB:8JG9_3 1-1053;1-171, |).
T6 sequence 1: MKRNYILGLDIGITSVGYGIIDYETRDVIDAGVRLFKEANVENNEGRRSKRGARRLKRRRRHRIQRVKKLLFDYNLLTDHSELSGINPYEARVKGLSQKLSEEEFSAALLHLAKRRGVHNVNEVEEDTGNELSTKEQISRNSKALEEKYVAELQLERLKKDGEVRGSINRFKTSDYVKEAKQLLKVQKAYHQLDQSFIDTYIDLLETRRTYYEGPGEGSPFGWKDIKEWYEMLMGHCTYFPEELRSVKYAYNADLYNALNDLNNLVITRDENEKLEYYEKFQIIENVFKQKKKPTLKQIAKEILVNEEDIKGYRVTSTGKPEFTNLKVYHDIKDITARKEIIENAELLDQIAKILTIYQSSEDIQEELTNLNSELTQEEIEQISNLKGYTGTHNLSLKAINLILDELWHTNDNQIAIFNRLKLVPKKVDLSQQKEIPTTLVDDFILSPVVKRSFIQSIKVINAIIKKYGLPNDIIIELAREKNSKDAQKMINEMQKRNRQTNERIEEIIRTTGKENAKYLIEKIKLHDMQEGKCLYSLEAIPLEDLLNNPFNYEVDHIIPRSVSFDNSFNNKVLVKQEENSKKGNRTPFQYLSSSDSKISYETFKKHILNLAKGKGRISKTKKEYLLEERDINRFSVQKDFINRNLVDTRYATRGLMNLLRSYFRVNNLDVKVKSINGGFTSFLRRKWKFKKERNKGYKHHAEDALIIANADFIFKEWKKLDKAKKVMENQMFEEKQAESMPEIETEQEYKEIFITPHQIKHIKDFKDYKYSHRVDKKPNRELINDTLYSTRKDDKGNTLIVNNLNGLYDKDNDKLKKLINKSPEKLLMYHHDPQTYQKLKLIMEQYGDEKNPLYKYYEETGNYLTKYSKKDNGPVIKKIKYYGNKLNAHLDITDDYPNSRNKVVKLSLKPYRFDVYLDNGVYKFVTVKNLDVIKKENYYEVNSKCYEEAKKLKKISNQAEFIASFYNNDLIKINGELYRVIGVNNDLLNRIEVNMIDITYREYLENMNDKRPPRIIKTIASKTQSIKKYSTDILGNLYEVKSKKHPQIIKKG
T6 sequence 2: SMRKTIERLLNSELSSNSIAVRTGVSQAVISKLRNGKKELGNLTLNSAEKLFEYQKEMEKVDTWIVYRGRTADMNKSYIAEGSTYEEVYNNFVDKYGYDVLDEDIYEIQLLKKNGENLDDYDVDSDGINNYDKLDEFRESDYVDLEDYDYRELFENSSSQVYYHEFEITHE
As to the kind of experiment: cryo-EM; with sgRNA; AcrIIA15 dimer, two SaCas9-sgRNA; Promoter EMSA: 20 mM Tris-HCl pH 7.5, 300 mM NaCl, on ice/4 C, 30 min; SaCas9 EMSA: 20 mM Tris pH 7.5, 200 mM NaCl, 10 mM EDTA, RT; SPR: 10 mM Na2HPO4, 2 mM KH2PO4, 0.3 M NaCl; SEC: 20 mM Tris pH 7.5, 300 mM NaCl. The conditions noted are these: protein: recombinant;recombinant; tags: His6-Sumo removed by Ulp1;C-terminal His6, or His6-Sumo removed by Ulp1; chain copies: 2;2; blunt.

The target of data set [13] is T7, AcrIIA15 NTD (UniProt PDB:8JFR_1 1-63).
T7 sequence: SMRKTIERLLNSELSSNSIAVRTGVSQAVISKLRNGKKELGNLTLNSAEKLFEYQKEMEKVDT
As to the kind of experiment: crystal structure; Promoter EMSA: 20 mM Tris-HCl pH 7.5, 300 mM NaCl, on ice/4 C, 30 min; SaCas9 EMSA: 20 mM Tris pH 7.5, 200 mM NaCl, 10 mM EDTA, RT; SPR: 10 mM Na2HPO4, 2 mM KH2PO4, 0.3 M NaCl; SEC: 20 mM Tris pH 7.5, 300 mM NaCl. The conditions noted are these: protein: recombinant; tags: C-His6 or His6-Sumo (removed); chain copies: 2; 5' overhang 1 nt on both strands.

Data set [14] addresses T5, AcrIIA15 full-length. The description is as above. The conditions noted are these: protein: recombinant; tags: C-terminal His6, or His6-Sumo removed by Ulp1; chain copies: 2; 5' overhang 1 nt on both strands.
Data set [15] concerns the target T5, AcrIIA15 full-length. As to the kind of experiment: EMSA; Promoter EMSA: 20 mM Tris-HCl pH 7.5, 300 mM NaCl, on ice/4 C, 30 min; SaCas9 EMSA: 20 mM Tris pH 7.5, 200 mM NaCl, 10 mM EDTA, RT; SPR: 10 mM Na2HPO4, 2 mM KH2PO4, 0.3 M NaCl; SEC: 20 mM Tris pH 7.5, 300 mM NaCl. The conditions noted are these: protein: recombinant; tags: C-terminal His6, or His6-Sumo removed by Ulp1; chain copies: 2; blunt.

In data set [1], “N-terminal domain of AcrIIA15 (AcrIIA15^NTD) (domain or fragment)” yielded a stoichiometry N of 2.

For the molecule full-length AcrIIA15 (natural protein), the stoichiometry N in [2], in data set [3], in data set [4] and in [5] was 2 in each case.

As for “full-length AcrIIA15 R2A mutant (natural protein)”, the stoichiometry N in data set [6] was 2.

B1: Cy3-IR1 (dsDNA)
DNA 1: ATAATTATGACAAATGTCATAGAAAA
DNA 2: TTTTCTATGACATTTGTCATAATTAT
On to B1, for which the binding result in data set [7], in data set [8], in data set [9] and in [10] was “no binding” in each case.

B2: IR1 (dsDNA)
DNA 1: ATAATTATGACAAATGTCATAGAAAA
DNA 2: TTTTCTATGACATTTGTCATAATTAT
Take B2: the Kd in [11] came out at 7.49 ± 0.6 nM. In addition, the binding result in [12] was “binds”.

B3: IR1'' (dsDNA)
DNA 1: ATTATGACAAATGTCATAG
DNA 2: TCTATGACATTTGTCATAA
On to B3, for which the binding result in data set [13] and in [14] was “binds” throughout.

B4: IR1 mutant in four base pairs (dsDNA)
DNA 1: ATAATTGTTACAAATGTAACAGAAAA
DNA 2: TTTTCTGTTACATTTGTAACAATTAT
For B4, in data set [15], the binding result is reported as “no binding”.

B5: IR2 (dsDNA)
DNA 1: TGACTTATGACGAACGTCATAATATA
DNA 2: TATATTATGACGTTCGTCATAAGTCA
B5: the Kd in data set [11] worked out at 1.8 ± 0.66 nM.
